How the values were obtained:
[1] = Tenofovir encapsulation in bolaamphiphile vesicles (UV absorbance after Sephadex G50 separation); format: physicochemical; settings: vesicles with vs without SA, Sephadex G50, absorbance at 260 nm
Experimental: Bolaamphiphiles, cholesterol, and CHMES (2:1:1 mole ratio) are dissolved in chloroform or a suitable solvent. […] The solvents are evaporated under vacuum and the resultant thin films are hydrated in 0.2 mg/mL CF solution in PBS and probe-sonicated (Vibra-Cell VCX130 sonicator, Sonics and Materials Inc., Newtown, Conn., USA) with amplitude 20%, pulse on: 15 sec, pulse off: 10 sec to achieve homogenous vesicle dispersions. Vesicle size and zeta potential were determined using a Zetasizer Nano ZS (Malvern Instruments, UK).
Methods were established to determine quantitatively the amount of the encapsulated tenofovir based on a UV absorption and determined the percent of tenofovir encapsulation by various vesicle formulations (data not shown). […] One objective of this work was to achieve the maximum amount of tenofovir encapsulated per vesicle along with a minimum loss of the non-encapsulated drug. Accordingly, several parameters were examined, such as varying the ratio among the vesicle components, changing the ratio of tenofovir to bolaamphiphiles, varying the pH of the hydration solution and also adding to the formulation additional additives, in the attempt to increase the encapsulation capacity of the vesicles.
In particular, in order to maximize tenofovir encapsulation the following parameters were studied: (1) tenofovir to GLH ratio; (2) adjusting the concentrations of cholestyrl hemisuccinate (CHEM) and cholesterol (CHOL), components that are used in the vesicle formulation, (3) examining several buffers and pHs in the encapsulation process, (4) time of sonication, and (5) tenofovir concentration, and (6) addition of stearyl amine to the vesicle formulation to enhance encapsulation by complexation with tenofovir.
The vesicles were prepared from formulations with and without SA and the non-encapsulated tenofovir (free tenofovir) was separated from the encapsulated tenofovir on Sephadex G50 column and the absorbance at 260 nm of each fraction collected from the column was read.

[2] = Fluorescence in cerebral cortex after i.v. injection of albumin-FITC; format: in vivo; settings: mouse cerebral cortex fluorescence
From the text: FIG. 5A: Fluorescence in mouse cerebral cortex after i.v. injection of albumin-FITC (non-encapsulated) FIG. 5B: Fluorescence in mouse cerebral cortex after i.v. injection of albumin-FITC encapsulated in GLH-20 vesicles.

Compound: CCCCCCCCCCCCCCCCCCN [SA, stearyl amine]
- effect of stearyl amine on tenofovir encapsulation [1]: increase tenofovir encapsulation

Compound: Albumin-FITC: FITC-labelled protein albumin
- delivery to the brain ([2]; encapsulated in GLH-20 vesicles): delivered successfully to the brain
- brain accumulation ([2]; un-encapsulated): little, if any, brain accumulation

From patent US11304964B2, “Bolaamphiphilic compounds, compositions and uses thereof” (priority 2012, dated 2022)
